According to PMC6203815:

Experiment: Ni-NTA recovery from HEK293, Coomassie SDS-PAGE
Details: glycan lost; control: wild-type Pfs48/45 6C

B1: Pfs48/45 6C: S305A (protein)
parent chain: MMLYISAKKAQVAFILYIVLVLRIISGNNDFCKPSSLNSEISGFIGYKCNFSNEGVHNLKPDMRERRSIFCTIHSYFIYDKIRLIIPKKSSSPEFKILPEKCFQKVYTDYENRVETDISELGLIEYEIEENDTNPNYNERTITISPFSPKDIEFFCFCDNTEKVISSIEGRSAMVHVRVLKYPHNILFTNLTNDLFTYLPKTYNESNFVSNVLEVELNDGELFVLACELINKKCFQEGKEKALYKSNKIIYHKNLTIFKAPFYVTSKDVNTECTCKFKNNNYKIVLKPKYEKKVIHGCNFSSNVSSKHTFTDSLDISLVDDSAHISCNVHLSEPKYNHLVGLNCPGDIIPDCFFQVYQPESEELEPSNIVYLDSQINIGDIEYYEDAEGDDKIKLFGIVGSIPKTTSFTCICKKDKKSAYMTVTIDSAYYGFLAKTFIFLIVAILLYI
  expression_or_secretion: decreases
